Values belong to the substance of their own block, whether it stands above or below them.
Assays:
CD28 receptor (human) = CD28 receptor (human) (UniProt P10747); experiment: cell-based or functional assay
B7 antigen (human) [1] = target: B7 antigen (human) (UniProt P33681); experiment: direct immunofluorescence flow cytometry, 5E1 B-lymphoblastoid cells, no unlabeled BB-1
B7 antigen (human) [2] = target: B7 antigen (human) (UniProt P33681); experiment: direct immunofluorescence flow cytometry, Daudi cells
B7 antigen (human) [3] = target: B7 antigen (human) (UniProt P33681); experiment: direct immunofluorescence flow cytometry, Jijoye Burkitt's lymphoma cells, no unlabeled BB-1
B7 antigen (human) [4] = target: B7 antigen (human) (UniProt P33681); experiment: cell-based or functional assay
B7 antigen (human) [5] = target: B7 antigen (human) (UniProt P33681); experiment: direct immunofluorescence flow cytometry, Raji Burkitt's lymphoma cells, no unlabeled BB-1
B7 antigen (human) [6] = target: B7 antigen (human) (UniProt P33681); experiment: direct immunofluorescence flow cytometry, Daudi Burkitt's lymphoma cells, no unlabeled BB-1
B7 antigen (human) [7] = target: B7 antigen (human) (UniProt P33681); experiment: direct immunofluorescence flow cytometry, Jijoye cells
B7 antigen (human) [8] = target: B7 antigen (human) (UniProt P33681); experiment: direct immunofluorescence flow cytometry, Daudi cells, after preincubation with unlabeled (cold) BB-1
B7 antigen (human) [9] = target: B7 antigen (human) (UniProt P33681); experiment: direct immunofluorescence flow cytometry, 5E1 cells, after preincubation with unlabeled (cold) BB-1
B7 antigen (human) [10] = target: B7 antigen (human) (UniProt P33681); experiment: direct immunofluorescence flow cytometry, T51 B-lymphoblastoid cells, no unlabeled BB-1
B7 antigen (human) [11] = target: B7 antigen (human) (UniProt P33681); experiment: direct immunofluorescence flow cytometry, Raji cells, after preincubation with unlabeled (cold) BB-1
B7 antigen (human) [12] = target: B7 antigen (human) (UniProt P33681); experiment: direct immunofluorescence flow cytometry, Raji cells
B7 antigen (human) [13] = target: B7 antigen (human) (UniProt P33681); experiment: direct immunofluorescence flow cytometry, T51 cells, after preincubation with unlabeled (cold) BB-1
B7 antigen (human) [14] = target: B7 antigen (human) (UniProt P33681); experiment: direct immunofluorescence flow cytometry, T51 cells
B7 antigen (human) [15] = target: B7 antigen (human) (UniProt P33681); experiment: direct immunofluorescence flow cytometry, Jijoye cells, after preincubation with unlabeled (cold) BB-1
B7 antigen (human) [16] = target: B7 antigen (human) (UniProt P33681); experiment: direct immunofluorescence flow cytometry, 5E1 cells

Chain of B7 antigen (human) (P33681 35-288): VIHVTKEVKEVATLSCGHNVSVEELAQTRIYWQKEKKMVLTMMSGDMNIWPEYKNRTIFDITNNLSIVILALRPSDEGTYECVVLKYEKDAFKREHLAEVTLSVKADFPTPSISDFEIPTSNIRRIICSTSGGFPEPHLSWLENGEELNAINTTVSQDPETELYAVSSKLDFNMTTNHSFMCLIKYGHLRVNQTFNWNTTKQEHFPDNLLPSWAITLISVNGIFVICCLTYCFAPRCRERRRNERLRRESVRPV

- [^3H]-T incorporation of PHA blasts stimulated with B7+ CHO (40:1), 9.3 Fab at 10 µg/ml (CD28 receptor (human)): 132000 cpm
Substance: mAb 9.3 (Fab fragments)

- mean fluorescence (linear units), FITC-BB-1 -COLD (B7 antigen (human) [1]): 13 linear units
- SPECIFIC BINDING (mean fluorescence, -cold minus +cold) (B7 antigen (human) [2]): 3.6 linear units
- mean fluorescence (linear units), FITC-BB-1 -COLD (B7 antigen (human) [3]): 17.8 linear units
- [^3H]-T incorporation of PHA blasts stimulated with B7+ CHO (40:1), BB-1 at 10 µg/ml (B7 antigen (human) [4]): 98300 cpm
- blocking of adhesion of Jijoye cells to CD28+ CHO cells, 10 mM EDTA (B7 antigen (human) [4]): 60%
- mean fluorescence (linear units), FITC-BB-1 -COLD (B7 antigen (human) [5]): 7.1 linear units
- mean fluorescence (linear units), FITC-BB-1 -COLD (B7 antigen (human) [6]): 6.4 linear units
- SPECIFIC BINDING (mean fluorescence, -cold minus +cold) (B7 antigen (human) [7]): 15 linear units
- mean fluorescence (linear units), FITC-BB-1 +COLD (B7 antigen (human) [8]): 2.8 linear units
- mean fluorescence (linear units), FITC-BB-1 +COLD (B7 antigen (human) [9]): 2.4 linear units
- mean fluorescence (linear units), FITC-BB-1 -COLD (B7 antigen (human) [10]): 16.4 linear units
- mean fluorescence (linear units), FITC-BB-1 +COLD (B7 antigen (human) [11]): 2.8 linear units
- SPECIFIC BINDING (mean fluorescence, -cold minus +cold) (B7 antigen (human) [12]): 4.3 linear units
- mean fluorescence (linear units), FITC-BB-1 +COLD (B7 antigen (human) [13]): 3 linear units
- SPECIFIC BINDING (mean fluorescence, -cold minus +cold) (B7 antigen (human) [14]): 13.4 linear units
- mean fluorescence (linear units), FITC-BB-1 +COLD (B7 antigen (human) [15]): 2.8 linear units
- SPECIFIC BINDING (mean fluorescence, -cold minus +cold) (B7 antigen (human) [16]): 10.6 linear units
Substance: mAb BB-1 (anti-B7) (antibody)

- [^3H]-T incorporation of PBL, +Anti-CD3, mAb 9.3 (immob.), Exp. 1 (CD28 receptor (human)): 137000 cpm
- [^3H]-T incorporation of PBL, +Anti-CD3, mAb 9.3 (soln.), Exp. 1 (CD28 receptor (human)): 156000 cpm
- [^3H]-T incorporation of PBL, +Anti-CD3, mAb 9.3 (soln.), Exp. 2 (CD28 receptor (human)): 75800 cpm
- [^3H]-T incorporation of PBL, -Anti-CD3, mAb 9.3 (immob.), Exp. 1 (CD28 receptor (human)): 100 cpm
- [^3H]-T incorporation of PBL, -Anti-CD3, mAb 9.3 (soln.), Exp. 1 (CD28 receptor (human)): 300 cpm
- [^3H]-T incorporation of PBL, -Anti-CD3, mAb 9.3 (soln.), Exp. 2 (CD28 receptor (human)): 400 cpm
- blocking of adhesion of B7 transfected COS cells to CD28+ CHO cells, EDTA omitted (CD28 receptor (human)): 40%
- half-maximal inhibition of CD28-mediated adhesion (PM cells to CD28+ CHO) (CD28 receptor (human)): 10 nM
- reduction of T51 cell adhesion to CD28+ CHO cells by mAb 9.3 alone (no EDTA) (CD28 receptor (human)): 62%
- reduction of T51 cell adhesion to CD28+ CHO cells by mAb 9.3 plus EDTA (CD28 receptor (human)): 93%
Substance: monoclonal antibody (mAb) 9.3 (anti-CD28)
